From the supplement of paper PMC9112550, “Optimization of the antimicrobial peptide Bac7 by deep mutational scanning” (BMC Biology, 2022)

The sequences below were run on Escherichia coli TOP10 (assay: shrunken log2 fold change of peptide-encoding DNA abundance (4.5 h post-induction vs induction); higher = less antimicrobial activity (less host growth inhibition)). Details: time post-induction: 4.5 h; library: site-saturation at positions 5, 18, 19, 20.
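Note: peptides expressed intracellularly from a pBAD plasmid library in pooled LB shake-flask culture, induced with 0.3% L-arabinose, DNA abundance read by NGS, three biological replicates, DESeq2 with apeglm shrinkage.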

Sequence | shrunken log2 fold change
RRIRDRPPRLPRPRPRPWAPPRP | 0.00499
RRIRLRPPRLPRPRPRPHFHPRP | -0.0565
RRIRKRPPRLPRPRPRPFQPPRP | 0.0366
RRIRGRPPRLPRPRPRPIGPPRP | 0.5
RRIRRRPPRLPRPRPRPHGTPRP | 0.00291
RRIRMRPPRLPRPRPRPISSPRP | -0.0416
RRIRIRPPRLPRPRPRPSSDPRP | 0.0499
RRIRIRPPRLPRPRPRPKGWPRP | 0.364
RRIRGRPPRLPRPRPRPSVWPRP | 0.622
RRIRSRPPRLPRPRPRPCTSPRP | -0.0192
RRIRSRPPRLPRPRPRPVLCPRP | -0.00306
RRIRNRPPRLPRPRPRPHFPPRP | -0.186
RRIRMRPPRLPRPRPRPWWVPRP | -0.129
RRIRKRPPRLPRPRPRPLQWPRP | 0.0701
RRIRERPPRLPRPRPRPQHKPRP | -0.467
RRIRARPPRLPRPRPRPHFNPRP | 0.122
RRIRKRPPRLPRPRPRPQFCPRP | 0.0712
RRIRDRPPRLPRPRPRPHKAPRP | -0.0142
RRIRPRPPRLPRPRPRPDNYPRP | -0.496
RRIRWRPPRLPRPRPRPLQSPRP | 0.153
RRIRRRPPRLPRPRPRPMNVPRP | -0.156
RRIRSRPPRLPRPRPRPWQYPRP | 0.0433
RRIRPRPPRLPRPRPRPMWCPRP | -0.0757
RRIRSRPPRLPRPRPRPHDIPRP | -0.0108
RRIRYRPPRLPRPRPRPPYGPRP | -0.54

Sequence | shrunken log2 fold change
RRIRCRPPRLPRPRPRPQKHPRP | -0.0816
RRIRDRPPRLPRPRPRPSGAPRP | 0.0348
RRIRNRPPRLPRPRPRPFVQPRP | -0.225
RRIRPRPPRLPRPRPRPMMYPRP | -0.198
RRIRKRPPRLPRPRPRPVGPPRP | 0.441
RRIRLRPPRLPRPRPRPMCWPRP | 0.0663
RRIRRRPPRLPRPRPRPEVSPRP | 0.214
RRIRYRPPRLPRPRPRPDKLPRP | -0.0621
RRIRSRPPRLPRPRPRPSVFPRP | -0.23
RRIRCRPPRLPRPRPRPQFQPRP | -0.606
RRIRDRPPRLPRPRPRPCSNPRP | 0.0176
RRIRQRPPRLPRPRPRPPMHPRP | 0.277
RRIRLRPPRLPRPRPRPIHWPRP | 0.143
RRIRWRPPRLPRPRPRPAAIPRP | 0.302
RRIRQRPPRLPRPRPRPWQVPRP | -0.154
RRIRIRPPRLPRPRPRPILIPRP | -0.097
RRIRNRPPRLPRPRPRPKQWPRP | 0.217
RRIRVRPPRLPRPRPRPKVLPRP | -0.51
RRIRCRPPRLPRPRPRPEYGPRP | -0.167
RRIRTRPPRLPRPRPRPAGCPRP | 0.316
RRIRFRPPRLPRPRPRPQGGPRP | 0.0852
RRIRRRPPRLPRPRPRPHCCPRP | 0.208
RRIRGRPPRLPRPRPRPQCIPRP | 0.438
RRIRSRPPRLPRPRPRPLPYPRP | -0.25
RRIRERPPRLPRPRPRPQIYPRP | -0.23

Sequence | shrunken log2 fold change
RRIRHRPPRLPRPRPRPQFDPRP | 0.0132
RRIRIRPPRLPRPRPRPWHSPRP | -0.383
RRIRQRPPRLPRPRPRPPKLPRP | 0.202
RRIRGRPPRLPRPRPRPFHDPRP | -0.0838
RRIRERPPRLPRPRPRPHYMPRP | -0.0919
RRIRSRPPRLPRPRPRPLYQPRP | -0.339
RRIRCRPPRLPRPRPRPFSHPRP | -0.608
RRIRSRPPRLPRPRPRPCPWPRP | -0.115
RRIRHRPPRLPRPRPRPYDSPRP | -0.0275
RRIRPRPPRLPRPRPRPHQDPRP | -0.362
RRIRSRPPRLPRPRPRPPLPPRP | 0.688
RRIRHRPPRLPRPRPRPDHKPRP | -0.274
RRIRCRPPRLPRPRPRPIHYPRP | -0.95
RRIRCRPPRLPRPRPRPISNPRP | -0.145
RRIRYRPPRLPRPRPRPDEMPRP | 0.0412
RRIRMRPPRLPRPRPRPTPGPRP | 1.13
RRIRARPPRLPRPRPRPFDKPRP | -0.107
RRIRERPPRLPRPRPRPPHLPRP | -0.0668
RRIRARPPRLPRPRPRPLNTPRP | -0.169
RRIRDRPPRLPRPRPRPTDIPRP | -0.231
RRIRHRPPRLPRPRPRPHGVPRP | 0.00355
RRIRLRPPRLPRPRPRPCEHPRP | -0.00776
RRIRQRPPRLPRPRPRPFRGPRP | 0.113
RRIRPRPPRLPRPRPRPPYTPRP | -0.232
RRIRDRPPRLPRPRPRPEKRPRP | -0.0167

Sequence | shrunken log2 fold change
RRIRHRPPRLPRPRPRPVTQPRP | -0.296
RRIRTRPPRLPRPRPRPLPRPRP | 0.484
RRIRVRPPRLPRPRPRPYPYPRP | -0.0982
RRIRDRPPRLPRPRPRPPTTPRP | 0.151
RRIRMRPPRLPRPRPRPPKWPRP | 0.315
RRIRNRPPRLPRPRPRPYTRPRP | -0.124
RRIRDRPPRLPRPRPRPPRSPRP | 1.11
RRIRIRPPRLPRPRPRPYPEPRP | -0.0522
RRIRSRPPRLPRPRPRPYTVPRP | -0.676
RRIRARPPRLPRPRPRPTIFPRP | 0.377
RRIRFRPPRLPRPRPRPGETPRP | 0.138
RRIRNRPPRLPRPRPRPHPAPRP | 0.116
RRIRVRPPRLPRPRPRPTSRPRP | -0.139
RRIRHRPPRLPRPRPRPPRSPRP | 0.704
RRIRARPPRLPRPRPRPPYHPRP | -0.102
RRIRWRPPRLPRPRPRPHNCPRP | -0.349
RRIRLRPPRLPRPRPRPCALPRP | -0.0607
RRIRGRPPRLPRPRPRPDKYPRP | -0.136
RRIRRRPPRLPRPRPRPLQKPRP | 0.44
RRIRWRPPRLPRPRPRPKQIPRP | 0.143
RRIRWRPPRLPRPRPRPLESPRP | 0.176
RRIRMRPPRLPRPRPRPDGGPRP | 0.135
RRIRNRPPRLPRPRPRPKQYPRP | -0.426
RRIRRRPPRLPRPRPRPQGMPRP | 0.133
RRIRSRPPRLPRPRPRPGLAPRP | 0.444

Sequence | shrunken log2 fold change
RRIRQRPPRLPRPRPRPLYSPRP | -0.649
RRIRPRPPRLPRPRPRPDCMPRP | 0.053
RRIRPRPPRLPRPRPRPSFCPRP | 0.0813
RRIRIRPPRLPRPRPRPHMIPRP | -0.602
RRIRDRPPRLPRPRPRPTRSPRP | 0.877
RRIRERPPRLPRPRPRPEQPPRP | -0.064
RRIRERPPRLPRPRPRPIVSPRP | 0.0707
RRIRCRPPRLPRPRPRPKIIPRP | -0.932
RRIRHRPPRLPRPRPRPHGQPRP | 0.0111
RRIRARPPRLPRPRPRPCMGPRP | 0.00996
RRIRKRPPRLPRPRPRPGGHPRP | 0.0505
RRIRFRPPRLPRPRPRPPKRPRP | 0.467
RRIRVRPPRLPRPRPRPQIQPRP | -0.034
RRIRGRPPRLPRPRPRPLYEPRP | 0.913
RRIRERPPRLPRPRPRPVKPPRP | -0.102
RRIRVRPPRLPRPRPRPMSAPRP | 0.262
RRIRDRPPRLPRPRPRPTYIPRP | -0.393
RRIRHRPPRLPRPRPRPKCMPRP | -0.29
RRIRDRPPRLPRPRPRPISLPRP | -0.0081
RRIRYRPPRLPRPRPRPKCFPRP | -0.0925
RRIRARPPRLPRPRPRPVKHPRP | 0.0139
RRIRIRPPRLPRPRPRPKTIPRP | -0.25
RRIRTRPPRLPRPRPRPSPEPRP | 0.0171
RRIRPRPPRLPRPRPRPERVPRP | 0.451
RRIRFRPPRLPRPRPRPNVAPRP | 0.365
